Measured values: patent US5639868, “High-affinity RNA ligands for basic fibroblast growth factor” (NeXstar Pharmaceuticals, Inc.)

B1: 2'-NH2 38B (ssRNA)
RNA: GGGAGGACGAUGCGGGCUGCGGUGCGCAUGUGUGGAAGACAGAGGGAGGUUAGAAUCGUGCCGCCAGACGACUCGCCCGA
modifications: 2'-NH2 at all C and U
B2: 5A (ssRNA)
RNA: GGGAGCUCAGAAUAAACGCUCAAAUCUCCUCCCGUCGAAGCUAACCUGGCCACUUCGACAUGAGGCCCGGAUCCGGC
B3: 7A (ssRNA)
RNA: GGGAGCUCAGAAUAAACGCUCAAUCGGCGAGCUAACCAAGACACUCGCUGCACUUCGACAUGAGGCCCGGAUCCGGC
B4: 26A (ssRNA)
RNA: GGGAGCUCAGAAUAAACGCUCAACGUCAGAAGGCAACGUAUAGGCAAGCACACUUCGACAUGAGGCCCGGAUCCGGC
B5: 12A (ssRNA)
RNA: GGGAGCUCAGAAUAAACGCUCAAGGGGCAACGCUACAGACAAGUGCACCCAACUUCGACAUGAGGCCCGGAUCCGGC

Tests used:
[1] = target: T1, basic fibroblast growth factor (bFGF, FGF-2) (UniProt P09038 P09038:135-288); assay: filter; biphasic, Kd1 (mole fraction 0.5); Kd2 = 270 nM; conditions: tags: Bachem California; 18 kDa, 154 amino acids
T1 sequence (P09038 135-288, one chain of several): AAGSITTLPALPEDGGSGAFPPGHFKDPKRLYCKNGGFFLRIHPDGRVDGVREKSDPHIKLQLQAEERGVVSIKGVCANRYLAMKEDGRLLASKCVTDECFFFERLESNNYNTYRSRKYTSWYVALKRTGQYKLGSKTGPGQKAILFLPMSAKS
Experimental: (§1) This affinity screening allowed identification of those ligands with highest affinity for bFGF. Binding of a group of these ligands was analyzed over a range of bFGF concentrations (FIG. 8) and their dissociation constants (Kd's) were determined as described (Jellinek et al. (1993) Proc. Natl. Acad. Sci. U.S.A. 90:11227–11231) (Table IX). RNA concentrations were determined from their absorbance reading at […] (and were typically <100 pM). Binding reactions were done at 37° C. in phosphate buffered saline containing 0.01% human serum albumin and 1 mM DTT.
(§2) The minimal sequence information required for high-affinity binding to bFGF was examined for several of the 2'-NH_2 modified ligands by deletion analyses as described (Tuerk et al. (1990) J. Mol. Biol. 213:749–761).

[2] = target: T1, basic fibroblast growth factor (bFGF, …); assay: filter; biphasic, Kd1 (mole fraction 0.5); Kd2 = 180 nM; conditions: tags: Bachem California; 18 kDa, 154 amino acids
Experimental: as §1, §2

[3] = target: T1, basic fibroblast growth factor (bFGF, …); assay: filter; monophasic; conditions: tags: Bachem California; 18 kDa, 154 amino acids
Experimental: as §1, §2

[4] = target: T1, basic fibroblast growth factor (bFGF, …); assay: filter; binding curve in figure only; PBS, 0.01% HSA, 1 mM DTT, 37 C; conditions: tags: Bachem California; 18 kDa, 154 amino acids
Experimental: Binding curves for modified RNA ligands 21A, 38B and random RNAs were determined (FIG. 8). RNA concentrations were determined from their absorbance reading at 260 nm and were typically less than 100 pM. Binding reactions were conducted at 37° C. in phosphate buffered saline containing 0.01% human serum albumin and 1 mM DTT. Heparin competitively displaced RNA ligands from both sequence families (FIG. 3), although higher concentrations of heparin were required to displace members of family 2 from bFGF.
as §1

[5] = target: T1, basic fibroblast growth factor (bFGF, …); assay: inhibition; 125I-bFGF binding to high-affinity receptor, BHK cells, 4 C; conditions: tags: Bachem California; 18 kDa, 154 amino acids; label: 125I
Experimental: Receptor Binding Studies. bFGF was labeled with ^125I by the Iodo-Gen (Pierce) procedure as described by Moscatelli (1987) supra. […] The amount of 125I-bFGF bound to the low- and the high-affinity receptor sites was determined as described by Moscatelli (1987) supra.

Binder | IC50 [5] | further results
GGUGUGUGGAAGACAGCGGGUGGUUC (ssRNA, 2'-NH2 at all C and U) [2'-NH2 21A-t] | – | Kd [1]: 0.1 nM
GGACGGCGUGGUCCGAGGGUGGCGAGU (ssRNA, 2'-NH2 at all C and U) [2'-NH2 58A-t] | – | Kd [2]: 1.8 nM
GGAGGACGAUGCGGAACGGGAGGUACGAGAGCGGGAGC (ssRNA, 2'-NH2 at all C and U) [2'-NH2 34B-t] | – | Kd [3]: 3 nM
B1 | – | binding result [4]: binds
B2 | ~1000 nM | –
B3 | ~1000 nM | –
B4 | ~1000 nM | –
B5 | > 1000 nM | –
